{
  "source": "paper PMC6536502",
  "about": "“Structural insights into DNA recognition by AimR of the arbitrium communication system in the SPbeta phage” (Cell Discovery, 2019)",
  "binders": {"B1": {"name": "31 bp aimX-upstream palindromic DNA (dsDNA)", "DNA 1": "ACTTAAATATTAGGTTTTAATAACATCTAGT", "DNA 2": "ACTAGATGTTATTAAAACCTAATATTTAAGT"}},
  "key": {"AimR N32A": {"target": "T1, AimR N32A (Bacillus phage SPbeta, UniProt O64094 1-386, N32A)", "T1 sequence": "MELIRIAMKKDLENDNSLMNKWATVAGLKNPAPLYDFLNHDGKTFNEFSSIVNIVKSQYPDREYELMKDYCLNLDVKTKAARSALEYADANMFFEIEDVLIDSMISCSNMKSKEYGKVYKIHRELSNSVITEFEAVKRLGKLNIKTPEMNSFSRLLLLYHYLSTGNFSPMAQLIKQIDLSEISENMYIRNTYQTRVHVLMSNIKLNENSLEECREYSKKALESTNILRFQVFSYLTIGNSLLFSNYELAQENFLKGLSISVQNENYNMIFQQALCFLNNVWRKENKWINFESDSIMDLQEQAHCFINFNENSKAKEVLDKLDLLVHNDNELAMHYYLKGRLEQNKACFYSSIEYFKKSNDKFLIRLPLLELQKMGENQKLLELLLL", "experiment": "EMSA; 5 mM Mg2+; EMSA: 25 mM Tris-HCl pH 8.0, 150 mM NaCl, 5 mM MgCl2, 5 mM DTT, 0.1 mg/ml BSA, 10% glycerol, 50 ug/ml salmon sperm DNA, 4 C, 15 min; smFRET: 20 mM phosphate pH", "details": "protein: recombinant; tags: 6xHis removed by drICE; chain copies: 2"}, "AimR": {"target": "T2, AimR (Bacillus phage SPbeta, UniProt O64094 1-386)", "T2 sequence": "T1 sequence with A32N", "experiment": "EMSA; 5 mM Mg2+; EMSA: 25 mM Tris-HCl pH 8.0, 150 mM NaCl, 5 mM MgCl2, 5 mM DTT, 0.1 mg/ml BSA, 10% glycerol, 50 ug/ml salmon sperm DNA, 4 C, 15 min; smFRET: 20 mM phosphate pH", "details": "protein: recombinant; tags: C-terminal 8xHis; chain copies: 2"}, "AimR T78D": {"target": "T3, AimR T78D (Bacillus phage SPbeta, UniProt O64094 1-386, T78D)", "T3 sequence": "T1 sequence with A32N, T78D", "experiment": "EMSA; EMSA: 25 mM Tris-HCl pH 8.0, 150 mM NaCl, 5 mM MgCl2, 5 mM DTT, 0.1 mg/ml BSA, 10% glycerol, 50 ug/ml salmon sperm DNA, 4 C, 15 min; smFRET: 20 mM phosphate pH", "details": "protein: recombinant; tags: 6xHis removed by drICE; chain copies: 2"}, "AimR K120D": {"target": "T4, AimR K120D (Bacillus phage SPbeta, UniProt O64094 1-386, K120D)", "T4 sequence": "T1 sequence with A32N, K120D", "experiment": "EMSA; EMSA: 25 mM Tris-HCl pH 8.0, 150 mM NaCl, 5 mM MgCl2, 5 mM DTT, 0.1 mg/ml BSA, 10% glycerol, 50 ug/ml salmon sperm DNA, 4 C, 15 min; smFRET: 20 mM phosphate pH", "details": "protein: recombinant; tags: 6xHis removed by drICE; chain copies: 2"}, "AimR N46D": {"target": "T5, AimR N46D (Bacillus phage SPbeta, UniProt O64094 1-386, N46D)", "T5 sequence": "T1 sequence with A32N, N46D", "experiment": "EMSA; EMSA: 25 mM Tris-HCl pH 8.0, 150 mM NaCl, 5 mM MgCl2, 5 mM DTT, 0.1 mg/ml BSA, 10% glycerol, 50 ug/ml salmon sperm DNA, 4 C, 15 min; smFRET: 20 mM phosphate pH", "details": "protein: recombinant; tags: 6xHis removed by drICE; chain copies: 2"}},
  "note": "Changes are numbered by the printed parent chain.",
  "data": [
    {"binder": "B1", "values": [
      {"measurement": "Kd", "setting": "AimR N32A", "result": "6.82 ± 2.25", "unit": "µM"},
      {"measurement": "Kd", "setting": "AimR", "result": "0.101 ± 0.0276", "unit": "µM"},
      {"measurement": "binding result", "setting": "AimR T78D", "result": "binds"},
      {"measurement": "binding result", "setting": "AimR K120D", "result": "binds"},
      {"measurement": "binding result", "setting": "AimR N46D", "result": "binds"}
    ]}
  ]
}
